# Laboratory results as given in patent US20230272055A1 (Incyte, published 2023).
# Where a chain is given by its changes, count along the chain named. In names and notes the source's numbering stands.
# B1: anti-mutCALR antibody clone 176 (antibody, human IgG1, lambda, N297A, V domains shown)
# VH: EVQLVQSGAEVKKPGASVKVSCKVSGYTLTELSMQWVRQAPGKGLEWMGGFDPDAGETMYAEKFQGRLTVTEDTSTDTVYMELSSLRSEDTAVYFCATSPGYDFFDYWGQGTLVTVSS
# VL: SYVLTQPPSVSVAPGQTARITCGGSDIGDEIVHWYQQKPGQAPVLVVYDDSDRPSGIPERFSGSNSGNTATLTISRAQAGDEADYYCQVWDSSSDHLIFGGGTKLTVLG
# B2: anti-mutCALR antibody clone 177 (antibody, human IgG1, lambda, N297A, V domains shown)
# VH: B1 VH with A55S
# VL: B1 VL
# notes: human IgG1 N297A variant of clone 17
# B3: anti-mutCALR antibody clone 175 (antibody, human IgG1, lambda, N297A, V domains shown)
# VH: B1 VH with A55D
# VL: B1 VL
# notes: as for B2
# B4: anti-mutCALR antibody clone 178 (antibody, human IgG1, lambda, N297A, V domains shown)
# VH: B1 VH with A55E
# VL: B1 VL
# notes: as for B2
# B5: anti-mutCALR antibody clone 179 (antibody, human IgG1, lambda, N297A, V domains shown)
# VH: B1 VH with A55D, G56A
# VL: B1 VL
# notes: as for B2
# B6: anti-mutCALR antibody clone 69 (antibody, human IgG1, lambda, N297A, V domains shown)
# VH: B1 VH with A55D, G56A, S84R, R87T, V93L
# VL: SYVLTQPPSVSVAPGKTARITCTGTSSDVGGYNYVSWYQQKPGQAPVLVVYEVSNRPSGIPERFSGSNSGNTATLTISRVEAGDEADYYCQVWDSSNDLLIFGGGTKLTVLG
# notes: human IgG1 N297A variant of clone 6
# B7: anti-mutCALR antibody clone 72 (antibody, human IgG1, lambda, N297A, V domains shown)
# VH: B1 VH with A55S
# VL: B6 VL
# notes: as for B6
# B8: anti-mutCALR antibody clone 73 (antibody, human IgG1, lambda, N297A, V domains shown)
# VH: B1 VH with A55E
# VL: B6 VL
# notes: as for B6
# B9: anti-mutCALR antibody clone 71 (antibody, human IgG1, lambda, N297A, V domains shown)
# VH: B1 VH
# VL: B6 VL
# notes: as for B6
# B10: anti-mutCALR antibody clone 68 (antibody, human IgG1, lambda, N297A, V domains shown)
# VH: B1 VH with A55E, S84R, R87T, V93L
# VL: B6 VL
# notes: as for B6
# B11: anti-mutCALR antibody clone 75 (antibody, human IgG1, lambda, N297A, V domains shown)
# VH: B1 VH with A55D, S84R, R87T, V93L
# VL: B1 VL with Q16K, S25N, D26N, D29S, E30K, I31S, A77V, Q78E, S94N, H96L
# B12: anti-mutCALR antibody clone 132 (antibody, human IgG1, lambda, N297A, V domains shown)
# VH: B1 VH with A55E
# VL: SYELTQPPSVSVAPGKTARITCGGDNIGSKSVHWYQQKPGQAPVLVVYDDSDRPSGIPERFSGSNSGNTATLTINRVEAGDEADYYCQVWDSSNDLLIFGGGTKLTVLG
# B13: anti-mutCALR antibody clone 130 (antibody, human IgG1, lambda, N297A, V domains shown)
# VH: B1 VH
# VL: B12 VL
# B14: anti-mutCALR antibody clone 76 (antibody, human IgG1, lambda, N297A, V domains shown)
# VH: B1 VH with S84R, R87T, V93L
# VL: B12 VL with E3V, D25N, N75S
# B15: anti-mutCALR antibody clone 124 (antibody, human IgG1, lambda, N297A)
# heavy: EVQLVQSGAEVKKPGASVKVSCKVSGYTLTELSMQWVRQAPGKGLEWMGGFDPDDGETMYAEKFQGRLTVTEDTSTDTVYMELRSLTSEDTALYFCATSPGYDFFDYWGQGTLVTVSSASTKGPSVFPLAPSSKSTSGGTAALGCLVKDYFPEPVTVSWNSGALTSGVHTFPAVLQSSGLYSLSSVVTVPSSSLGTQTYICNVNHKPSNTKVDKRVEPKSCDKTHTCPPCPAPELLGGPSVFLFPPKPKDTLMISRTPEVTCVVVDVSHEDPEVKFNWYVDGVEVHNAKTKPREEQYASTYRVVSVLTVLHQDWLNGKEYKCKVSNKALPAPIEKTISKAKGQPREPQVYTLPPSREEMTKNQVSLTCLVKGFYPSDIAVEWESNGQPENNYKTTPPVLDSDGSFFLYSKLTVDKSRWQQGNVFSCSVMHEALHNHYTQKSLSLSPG
# light: SYELTQPPSVSVAPGKTARITCGGDNIGSKSVHWYQQKPGQAPVLVVYDDSDRPSGIPERFSGSNSGNTATLTINRVEAGDEADYYCQVWDSSNDLLIFGGGTKLTVLGQPKAAPSVTLFPPSSEELQANKATLVCLISDFYPGAVTVAWKADSSPVKAGVETTTPSKQSNNKYAASSYLSLTPEQWKSHRSYSCQVTHEGSTVEKTVAPTECS
# B16: anti-mutCALR antibody clone 84 (antibody, human IgG1, lambda, N297A, V domains shown)
# VH: B1 VH with A55D, G56A
# VL: B12 VL with E3V, D25N, N75S
# B17: anti-mutCALR antibody clone 125 (antibody, human IgG1, lambda, N297A, V domains shown)
# VH: B1 VH with S84R, R87T, V93L
# VL: B12 VL
# B18: anti-mutCALR antibody clone 127 (antibody, human IgG1, lambda, N297A, V domains shown)
# VH: B1 VH with A55E, S84R, R87T, V93L
# VL: B12 VL
# B19: anti-mutCALR antibody clone 131 (antibody, human IgG1, lambda, N297A, V domains shown)
# VH: B1 VH with A55S
# VL: B12 VL
# B20: anti-mutCALR antibody clone 77 (antibody, human IgG1, lambda, N297A, V domains shown)
# VH: B1 VH with A55S, S84R, R87T, V93L
# VL: B12 VL with E3V, D25N, N75S
# B21: anti-mutCALR antibody clone 83 (antibody, human IgG1, lambda, N297A, V domains shown)
# VH: B1 VH with A55E
# VL: B12 VL with E3V, D25N, N75S
# B22: anti-mutCALR antibody clone 133 (antibody, human IgG1, lambda, N297A, V domains shown)
# VH: B1 VH with A55D, G56A
# VL: B12 VL
# B23: anti-mutCALR antibody clone 82 (antibody, human IgG1, lambda, N297A, V domains shown)
# VH: B1 VH with A55S
# VL: B12 VL with E3V, D25N, N75S
# B24: anti-mutCALR antibody clone 79 (antibody, human IgG1, lambda, N297A, V domains shown)
# VH: B1 VH with A55D, G56A, S84R, R87T, V93L
# VL: B12 VL with E3V, D25N, N75S
# B25: anti-mutCALR antibody clone 81 (antibody, human IgG1, lambda, N297A, V domains shown)
# VH: B1 VH
# VL: B12 VL with E3V, D25N, N75S
# B26: anti-mutCALR antibody clone 78 (antibody, human IgG1, lambda, N297A, V domains shown)
# VH: B1 VH with A55E, S84R, R87T, V93L
# VL: B12 VL with E3V, D25N, N75S
# B27: anti-mutCALR antibody clone 128 (antibody, human IgG1, lambda, N297A, V domains shown)
# VH: B1 VH with A55D, G56A, S84R, R87T, V93L
# VL: B12 VL
# Biological target: T1, Recombinant MBP-mutCALR Type 1 fusion protein (human)
# T1 construct: custom made at Cepter; also called recombinant mutCALR protein
# Experiment: SPR, IgG captured, 1:1 fit, Exp. 2
# Protocol: Experiment 2: Recombinant MBP-mutCALR Type 1 fusion protein was custom made at Cepter (cepterbiopartners.com). Data for the interaction of antibodies with recombinant mutCALR protein were collected at 25° C. on a Biacore 8K instrument (Cytiva, Marlborough, Mass.), and all reagents were obtained from Cytiva unless otherwise specified. The experiments were conducted using Tris-buffered saline (pH 7.2), 0.005% Surfactant P20, 1 mM CaCl₂) as running buffer. To prepare the capture surfaces, anti-human IgG (Fc) antibodies (Product #29234600) was amine-coupled onto a CM4 chip (Product #BR100534) under standard conditions using an Amine Coupling Kit (Product #BR100050). […] The kinetics parameters were obtained by applying 1:1 binding model to fit the data from multiple-cycle injection experiments using Biacore Insight Evaluation software.
Binder,Kd,koff,kon
B1,2.8 nM,0.00278 s⁻¹,994000 M⁻¹ s⁻¹
B2,1.49 nM,0.00549 s⁻¹,3.7e+06 M⁻¹ s⁻¹
B3,1.39 nM,0.00631 s⁻¹,4.53e+06 M⁻¹ s⁻¹
B4,1.21 nM,0.00123 s⁻¹,1.02e+06 M⁻¹ s⁻¹
B5,0.455 nM,0.00681 s⁻¹,1e+07 M⁻¹ s⁻¹
B6,0.53 nM,0.00527 s⁻¹,9.94e+06 M⁻¹ s⁻¹
B7,3.74 nM,0.00382 s⁻¹,1.02e+06 M⁻¹ s⁻¹
B8,0.76 nM,0.00546 s⁻¹,7.18e+06 M⁻¹ s⁻¹
B9,2.31 nM,0.0107 s⁻¹,4.63e+06 M⁻¹ s⁻¹
B10,1.15 nM,0.00166 s⁻¹,1.44e+06 M⁻¹ s⁻¹

# Biological target: T2, human mutCALR on BaF3 cells stably expressing human MPL and human mutCALR (MPL-mutCALR cells) (human)
# T2 construct: also called mutant calreticulin
# T2 chain: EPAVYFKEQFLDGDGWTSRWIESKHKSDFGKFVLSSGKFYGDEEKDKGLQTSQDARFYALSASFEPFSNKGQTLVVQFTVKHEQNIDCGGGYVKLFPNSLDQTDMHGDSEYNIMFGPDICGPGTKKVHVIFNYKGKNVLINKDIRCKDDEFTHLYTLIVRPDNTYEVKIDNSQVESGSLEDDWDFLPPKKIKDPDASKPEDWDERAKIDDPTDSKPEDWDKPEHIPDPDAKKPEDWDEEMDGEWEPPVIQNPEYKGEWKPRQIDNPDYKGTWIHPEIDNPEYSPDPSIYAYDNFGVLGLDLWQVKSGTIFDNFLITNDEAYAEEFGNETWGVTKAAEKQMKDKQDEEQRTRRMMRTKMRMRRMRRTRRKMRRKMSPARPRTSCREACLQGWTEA
# Experiment: flow cytometry, BaF3 MPL-mutCALR cells
# Protocol: On the day of the assay, cells were washed and resuspended in assay buffer. Approximately 200,000 cells/well were added to 96-well plates and stained with the indicated concentration of antibodies for 30 minutes on ice. Cells were then washed and stained with goat anti-human secondary conjugated to R-phycoerythrin (R-PE) (Jackson Immuno Research Laboratories) for 30 minutes on ice. The cells were then washed and analyzed by flow cytometry.
Binder,MPL-mutCALR AUC,EC50
B11,84900,
B12,73400,0.4 ng/mL
B13,58300,1.7 ng/mL
B14,55100,8.2 ng/mL
B15,93700,
B16,82400,2.9 ng/mL
B17,62700,2.1 ng/mL
B18,73500,1.4 ng/mL
B19,58300,1.1 ng/mL
B20,54200,6.7 ng/mL
B21,62800,3.4 ng/mL
B22,85200,1.7 ng/mL
B23,50200,4.8 ng/mL
B24,71900,3.3 ng/mL
B25,52900,8.2 ng/mL
B26,64300,5.5 ng/mL
B27,88900,
